In publication PMC9978964 one finds Kd data, which are given here for 2 substances.

Common to all, as to test: BLI
On the technique in general: In BLI a coated tip is dipped into the sample, and binding shifts an interference pattern.

For test [1], the target named is biotinylated FXR NES peptide (amino acids 401–454), T442 non-phosphorylated (human).
In test [2] the target is biotinylated FXR NES peptide (amino acids 401–454), T442 phosphorylated (human).
In test [3] the target is biotinylated FXR NLS peptide (amino acids 191–230), K217 acetylated (human).
In test [4] the target is biotinylated FXR NLS peptide (amino acids 191–230), K217 non-acetylated (human).

With “CRM1 protein used in the BLI assay (from UniProt O14980 1-1071) (natural protein)”, the values for the Kd in test [1] and in test [2] were 90.1 nM and 181 nM, respectively.
On to “KPNA3 protein used in the BLI assay (from UniProt O00505 1-521) (natural protein)”, for which the Kd (usually the free concentration of one partner at which half of the binding sites on the other are occupied at equilibrium, for simple one-to-one binding) in test [3] stood at 51 nM; in test [4], 17.4 nM.
